Measurements from article PMC3625992 (Structure (London, England : 1993), 2012).

Target: T1, helicase and C-terminal regulatory domains of human RIG-I (helicase-CTD; residues 230–925) (human, UniProt O95786 230-925)
T1 sequence (looked up): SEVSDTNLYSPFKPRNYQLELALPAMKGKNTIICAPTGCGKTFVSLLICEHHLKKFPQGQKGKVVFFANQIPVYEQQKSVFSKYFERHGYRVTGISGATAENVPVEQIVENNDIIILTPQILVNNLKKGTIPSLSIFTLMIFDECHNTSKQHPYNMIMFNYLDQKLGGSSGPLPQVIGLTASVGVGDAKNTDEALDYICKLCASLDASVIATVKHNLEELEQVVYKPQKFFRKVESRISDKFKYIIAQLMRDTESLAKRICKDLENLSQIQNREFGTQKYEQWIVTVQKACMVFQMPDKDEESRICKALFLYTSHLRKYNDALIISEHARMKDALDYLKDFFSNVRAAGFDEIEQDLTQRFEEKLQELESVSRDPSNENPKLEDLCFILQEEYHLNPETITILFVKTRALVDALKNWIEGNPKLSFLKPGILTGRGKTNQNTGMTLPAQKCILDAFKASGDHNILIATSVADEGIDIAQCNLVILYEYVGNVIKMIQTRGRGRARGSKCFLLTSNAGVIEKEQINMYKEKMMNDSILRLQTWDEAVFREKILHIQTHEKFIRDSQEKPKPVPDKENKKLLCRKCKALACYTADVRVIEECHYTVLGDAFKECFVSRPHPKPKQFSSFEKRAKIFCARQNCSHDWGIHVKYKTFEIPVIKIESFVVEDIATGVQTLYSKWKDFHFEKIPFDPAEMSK
Assay: NMR titration

Kd: 1.66 ± 1.3 µM
B1: second CARD of human RIG-I (CARD2; residues 95–190) (domain or fragment, UniProt O95786 95-190, looked up)
chain: KKIEKLEEYRLLLKRLQPEFKTRIIPTDIISDLSECLINQECEEILQICSTKGMMAGAEKLVECLLRSDKENWPKTLKLALEKERNKFSELWIVEK
